The values below come from patent publication US20170015742A1 (published 2017).

The target in assay [1] is T1, VEGF-A (recombinant; human VEGF-A 165) (human, UniProt P15692 207-395).
T1 construct: also called hVEGF165
As to the kind of experiment: Biacore SPR; binding protein captured on goat anti-human Fc, antigen injected (Example 1.1).

In assay [2] the target is T2, PDGF-BB (recombinant; human PDGF-BB) (human, UniProt P01127 82-190, limits assumed).
T2 construct: PDGF-BB is a homodimer of two B chains; also called hPDGF-BB
T2 sequence (P01127 82-190 limits assumed): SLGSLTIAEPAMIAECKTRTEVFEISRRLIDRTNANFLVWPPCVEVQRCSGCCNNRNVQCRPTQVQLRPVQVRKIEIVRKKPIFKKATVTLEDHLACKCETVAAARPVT
Described as above.

Assay [3] addresses recombinant human VEGF165 (human, UniProt P15692 207-395). As to the kind of experiment: cell-based or functional assay.
Assay [4] has as its target recombinant human PDGF-BB (human, UniProt P01127 82-190). As to the kind of experiment: cell-based or functional assay.
The target of the next assay is T3, Human VEGF-A 111 (human, UniProt P15692-10 27-137).
T3 construct: not used because the names differ; also called hVEGF111
T3 sequence (looked up): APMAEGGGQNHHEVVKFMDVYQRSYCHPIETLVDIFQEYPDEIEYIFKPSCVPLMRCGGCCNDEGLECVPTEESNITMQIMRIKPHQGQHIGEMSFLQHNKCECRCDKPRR
As to the kind of experiment: SPR (Biacore), summary table. Here is the method: (§1) Unreacted moieties on the biosensor surface were blocked with ethanolamine. For kinetic analysis, rate equations derived from the 1:1 Langmuir binding model were fitted simultaneously to multiple antigen injections (using global fit analysis) with the use of Scrubber 2 (BioLogic Software), Biacore Biaevaluation 4.0.1 software or Biacore T100 Evaluation software. Purified antibodies or DVD-Ig molecules were diluted in running buffer for capture across goat anti-human Fc reaction surfaces. Antibodies or DVD-Ig molecules to be captured as a ligand (1 μg/ml) were injected over reaction matrices at a flow rate of 10 μl/minute. During the assay, all measurements were referenced against the capture surface alone (i.e., with no captured antibody or DVD-Ig molecule). […] The equilibrium dissociation constant KD (M) of the reaction between antibodies and the target antigen was then calculated from the kinetic rate constants by the following formula: KD=Koff/Kₒₙ. Binding was recorded as a function of time and kinetic rate constants were calculated. In this assay, on-rates as fast as 10⁶M⁻¹s⁻¹ and off-rates as slow as 10⁻⁶ s⁻¹ could be measured.
(SPR reads the build-up and loss of mass on a sensor chip optically.)

The next assay has as its target T4, Human PDGF-BB, soluble (human, UniProt P01127 82-190).
T4 construct: also called hPDGF-BB; soluble PDGF-BB
Briefly: SPR (Biacore), summary table. Here is the method: as §1

In the next assay the target is T5, Human VEGF-A 165 (human, UniProt P15692 207-395).
T5 construct: also called hVEGF165
As to the kind of experiment: SPR (Biacore), summary table. Here is the method: as §1

In another assay the target is T6, Human VEGF-A 121 (human, UniProt P15692 207-395).
T6 construct: also called hVEGF121
T6 sequence: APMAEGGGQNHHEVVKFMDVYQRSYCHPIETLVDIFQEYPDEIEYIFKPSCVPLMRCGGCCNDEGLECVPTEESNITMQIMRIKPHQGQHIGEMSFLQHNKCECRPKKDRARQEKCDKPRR
Briefly: SPR (Biacore), summary table. Here is the method: as §1

The target of a further assay is T7, rat PDGF-B (PR-1645048) (rat, UniProt Q05028 74-182).
T7 construct: Lot 2235300; also called rat PDGF-BB; ratPDGF-BB
T7 sequence (Q05028 74-182 limits assumed): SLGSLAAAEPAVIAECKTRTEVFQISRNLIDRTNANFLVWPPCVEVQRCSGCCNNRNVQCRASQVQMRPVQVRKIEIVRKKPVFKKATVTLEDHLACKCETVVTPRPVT
Briefly: SPR (Biacore), DVD-Ig captured by anti-human Fc, antigen injected. Here is the method: as §1

T1 sequence (P15692 other isoform, or with tags, fused parts or gaps limits assumed): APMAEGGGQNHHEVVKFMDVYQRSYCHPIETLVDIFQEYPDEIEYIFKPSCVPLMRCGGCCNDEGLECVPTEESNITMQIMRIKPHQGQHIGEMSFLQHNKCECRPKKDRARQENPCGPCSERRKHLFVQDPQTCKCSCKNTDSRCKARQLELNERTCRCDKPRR
T4 sequence (P01127 82-190 limits assumed): as the sequence (P01127 82-190 limits assumed) above
Chain of recombinant human PDGF-BB (P01127 82-190 limits assumed): as above

B1: CODV022 (PR-1577056), anti-human VEGF-A/anti-human PDGF-BB cross-over DVD-Ig molecule (bispecific antibody, human IgG1, kappa, L234A L235A)
heavy: EVQLVQSGSELKKPGASVKVSCKASGYTFTNYGMYWVRQAPGQGLEWMGWINTETGKPTYADDFKGRFVFSLDTSVSTAYLQISSLKAEDTAVYYCARTNYYYRSYIFYFDYWGQGTMVTVSSGGGGSGGGEFVLTQSPGTLSLSPGERATLSCERSSGDIGESYVSWYQQKPGQAPRLVIYADDQRPSGIPDRFSGSGSGTDFTLTISRLEPEDFAVYYCQSYDINIDIVFGGGTKVEIKGGGSGASTKGPSVFPLAPSSKSTSGGTAALGCLVKDYFPEPVTVSWNSGALTSGVHTFPAVLQSSGLYSLSSVVTVPSSSLGTQTYICNVNHKPSNTKVDKKVEPKSCDKTHTCPPCPAPEAAGGPSVFLFPPKPKDTLMISRTPEVTCVVVDVSHEDPEVKFNWYVDGVEVHNAKTKPREEQYNSTYRVVSVLTVLHQDWLNGKEYKCKVSNKALPAPIEKTISKAKGQPREPQVYTLPPSREEMTKNQVSLTCLVKGFYPSDIAVEWESNGQPENNYKTTPPVLDSDGSFFLYSKLTVDKSRWQQGNVFSCSVMHEALHNAYTQKSLSLSPGK
light: EVTLRESGPALVKPTQTLTLTCTFSGFSLSTYGMGVGWIRQPPGKALEWLANIWWDDDKYYNPSLKNRLTISKDTSKNQVVLTMTNMDPVDTATYYCARIESIGTTYSFDYWGQGTMVTVSSGGGGSDTVLTQSPATLSLSPGERATLSCRASESVSTHMHWYQQKPGQAPRLLIYGASNLESGVPARFSGSGSGTDFTLTISSLEPEDFAVYFCQQSWNDPFTFGQGTKLEIKGGSRTVAAPSVFIFPPSDEQLKSGTASVVCLLNNFYPREAKVQWKVDNALQSGNSQESVTEQDSKDSTYSLSSTLTLSKADYEKHKVYACEVTHQGLSSPVTKSFNRGEC
notes: Cross-over DVD-Ig: the variable domains of the 4G8.3 (VEGF) and 9E8.4E (PDGF) sites are spread over both chains; also called CO-DVD-Ig
On to B1, for which, in [1], the Kd worked out at 0.013 nM and the kon turned out to be 4.5e+06 M⁻¹ s⁻¹. Besides, in assay [2], the dissociation constant (Kd) was determined as 0.0042 nM and the kon was 3.2e+07 M⁻¹ s⁻¹.

B2: hu VEGF 9E10.1-GS-hu PDGF 33675 [hu IgG1/k] LALA H435A (PR-1610561) (bispecific antibody)
heavy: EIQLVQSGSELKKPGASVKVSCKASGYTFTNYGMYWVKQAPGQGLEYMGWIDTETGRPTYADDFKGRFVFSLDTSVSTAYLQISSLKAEDTAVYFCARWSGDTTGIRGPWFAYWGQGTLVTVSSGGGGSGGGGSEVTLRESGPALVKPTQTLTLTCTFSGFSLSTYGMGVGWIRQPPGKALEWLANIWWDDDKYYNPSLKNRLTISKDTSKNQVVLTMTNMDPVDTATYYCARIESSGPKYSFDYWGQGTMVTVSSASTKGPSVFPLAPSSKSTSGGTAALGCLVKDYFPEPVTVSWNSGALTSGVHTFPAVLQSSGLYSLSSVVTVPSSSLGTQTYICNVNHKPSNTKVDKKVEPKSCDKTHTCPPCPAPEAAGGPSVFLFPPKPKDTLMISRTPEVTCVVVDVSHEDPEVKFNWYVDGVEVHNAKTKPREEQYNSTYRVVSVLTVLHQDWLNGKEYKCKVSNKALPAPIEKTISKAKGQPREPQVYTLPPSREEMTKNQVSLTCLVKGFYPSDIAVEWESNGQPENNYKTTPPVLDSDGSFFLYSKLTVDKSRWQQGNVFSCSVMHEALHNAYTQKSLSLSPGK
light: DIRMTQSPSSLSASVGDRVTIECLASEDIYSDLAWYQQKPGKSPKLLIYNANGLQNGVPSRFSGSGSGTDYSLTISSLQPEDVATYFCQQYNYFPGTFGQGTKLEIKGGSGGGGSGGEIVLTQSPGTLSLSPGERATLSCRASSGSIWYSFVSWYQQKPGQAPRLLIYADDQRASGIPDRFSGSGSGTDFTLTISRLEPEDFAVYYCQSYGINIDVVFGGGTKVEIKRTVAAPSVFIFPPSDEQLKSGTASVVCLLNNFYPREAKVQWKVDNALQSGNSQESVTEQDSKDSTYSLSSTLTLSKADYEKHKVYACEVTHQGLSSPVTKSFNRGEC
In the case of B2, the “Potency IC50 (pM), Human VEGF-A, cellular assay” value in [3] came to 145 pM. Further, the “Potency IC50 (pM), Human PDGF-BB, cellular assay” value in assay [4] stood at 34 pM.

B3: 9E10.1-GS-33675 anti-VEGF/anti-PDGF DVD-Ig molecule (PR-1610561) (bispecific antibody, human IgG1, kappa, L234A L235A)
heavy: EIQLVQSGSELKKPGASVKVSCKASGYTFTNYGMYWVKQAPGQGLEYMGWIDTETGRPTYADDFKGRFVFSLDTSVSTAYLQISSLKAEDTAVYFCARWSGDTTGIRGPWFAYWGQGTLVTVSSGGGGSGGGGSEVTLRESGPALVKPTQTLTLTCTFSGFSLSTYGMGVGWIRQPPGKALEWLANIWWDDDKYYNPSLKNRLTISKDTSKNQVVLTMTNMDPVDTATYYCARIESSGPKYSFDYWGQGTMVTVSSASTKGPSVFPLAPSSKSTSGGTAALGCLVKDYFPEPVTVSWNSGALTSGVHTFPAVLQSSGLYSLSSVVTVPSSSLGTQTYICNVNHKPSNTKVDKKVEPKSCDKTHTCPPCPAPEAAGGPSVFLFPPKPKDTLMISRTPEVTCVVVDVSHEDPEVKFNWYVDGVEVHNAKTKPREEQYNSTYRVVSVLTVLHQDWLNGKEYKCKVSNKALPAPIEKTISKAKGQPREPQVYTLPPSREEMTKNQVSLTCLVKGFYPSDIAVEWESNGQPENNYKTTPPVLDSDGSFFLYSKLTVDKSRWQQGNVFSCSVMHEALHNAYTQKSLSLSPGK
light: DIRMTQSPSSLSASVGDRVTIECLASEDIYSDLAWYQQKPGKSPKLLIYNANGLQNGVPSRFSGSGSGTDYSLTISSLQPEDVATYFCQQYNYFPGTFGQGTKLEIKGGSGGGGSGGEIVLTQSPGTLSLSPGERATLSCRASSGSIWYSFVSWYQQKPGQAPRLLIYADDQRASGIPDRFSGSGSGTDFTLTISRLEPEDFAVYYCQSYGINIDVVFGGGTKVEIKRTVAAPSVFIFPPSDEQLKSGTASVVCLLNNFYPREAKVQWKVDNALQSGNSQESVTEQDSKDSTYSLSSTLTLSKADYEKHKVYACEVTHQGLSSPVTKSFNRGEC
notes: DVD-Ig: outer domain hBEW-9E10.1 (VEGF), inner domain CL-33675 (PDGF), linkers GS-H10 / GS-L10(dR); human IgG1 L234A, L235A, H435A / kappa; Lot 2213329; also called hu VEGF 9E10.1-GS-hu PDGF 33675 [hu IgG1/k]; LALA H435A
Take B3: the Kd with Human VEGF-A 111 is 0.29 nM; with Human PDGF-BB, soluble, 0.005 nM; in the assay with Human VEGF-A 165, 0.065 nM; with Human VEGF-A 121, 0.23 nM; in the assay with rat PDGF-B (PR-1645048) it was no more than 0.0052 nM. In addition, in the assay with rat PDGF-B (PR-1645048), the koff is 5.2e-05 s⁻¹. Besides, in the assay with rat PDGF-B (PR-1645048), the kon is no less than 1e+07 M⁻¹ s⁻¹.

The term Kd denotes the free concentration of one partner at which half of the binding sites on the other are occupied at equilibrium, for simple one-to-one binding. By kon is commonly meant the second-order rate constant of association. For orientation: koff means a measure of how fast the partners let go of each other. Low readings indicate slow dissociation, high ones fast dissociation.
